# Changes are numbered by the printed parent chain. Names and notes keep the numbering of the source.
# T1: murine SIRPα on U2OS cells (mouse, UniProt P97797 32-513)
# T1 construct: whole, on cells; also called mouse SIRPα
# T1 sequence (looked up): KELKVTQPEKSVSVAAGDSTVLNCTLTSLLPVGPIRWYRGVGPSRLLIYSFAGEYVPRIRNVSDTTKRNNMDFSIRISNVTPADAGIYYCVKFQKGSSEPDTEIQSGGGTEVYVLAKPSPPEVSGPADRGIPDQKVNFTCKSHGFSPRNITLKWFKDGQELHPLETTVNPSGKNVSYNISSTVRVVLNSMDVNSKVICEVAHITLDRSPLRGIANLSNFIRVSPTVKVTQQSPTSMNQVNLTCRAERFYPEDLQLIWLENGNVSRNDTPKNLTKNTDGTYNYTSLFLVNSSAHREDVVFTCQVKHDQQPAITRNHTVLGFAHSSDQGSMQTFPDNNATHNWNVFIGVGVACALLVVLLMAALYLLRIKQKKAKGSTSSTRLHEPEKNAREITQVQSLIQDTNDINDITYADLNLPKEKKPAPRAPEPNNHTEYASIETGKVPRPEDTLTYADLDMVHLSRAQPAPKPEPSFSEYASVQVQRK
# B1: chelator conjugated hSIRPα-S36K>R Nb (VHH)
# VHH: EVQLVESGGGLVQPGGSLRLSCAASGFTLDYYAIGWFRQVPGREREGVSCISSDGGGNTYYADSVRGRFTISRDNARNTVYLQMNSLRPEDSAVYSCAAGPTYYSGSYCRDPHSDYDYWGQGTQVTVSS
# modifications: p-NCS-benzyl-NODA-GA chelator conjugated to the single remaining primary NH2-group at the N-terminus
# B2: hSIRPα nanobody S36 (VHH)
# VHH: B1 VHH with R43K, R66K, R77K, R88K
# notes: also called Nb S36; hSIRPα-S36 Nb
# B3: hSIRPα nanobody S44 (VHH)
# VHH: QVQLQESGGGLVQPGGSLRLACAASGFTFSSYDMSWVRQAPGKGLEWVSDIKSGGGRTYYADSVKGRFTISRDNAKNTVYLQMNSLKPEDTAVYYCGSLDNSGAYTGGGQGSQVTVSS
# notes: also called Nb S44
# B4: hSIRPα nanobody S12 (VHH)
# VHH: QVQLVESGGGLVQPGGSLRLSCLVSGFSSSYYAIGWFRQAPGKEREGVSCITRSGDTTNYADSVKGRFTISRDDARNTVYLQMNSLKTEDTAVYSCALWAWAGSGRLRCTASEYGHWGQGTQVTVSS
# notes: also called Nb S12
# B5: hSIRPα nanobody S7 (VHH)
# VHH: HVQLVESGGGLVQVGDSLRLSCAPSGRTFRAYAMAWFRQAPGKEREFVAAIRWIGGTPSYKDSVKGRFTISRDNARNTFYLQMNSLEPQDTGVYYCAAEETQKGSGLGHDGRHYDYWGQGTPVTVSS
# notes: Expressed from pHEN6 in E. coli and purified by IMAC; the tag is not described; also called Nb S7
# B6: hSIRPα nanobody S45 (VHH)
# VHH: HVQLVESGGGLVQPGGSLRLSCAARGFSFRDSAMSWARQAPGKGLEWVGAIYSDGSTVYEKSVKGRFTISRDNAKNTMYLQMHSLKPEDSARYYCAPKGVVADEGDYSGQGTLVTVSS
# notes: also called Nb S45
# B7: hSIRPα nanobody S33 (VHH)
# VHH: EVQLVESGGGLVQPGGSLRLSCTTSGFTLDYYSVGWFRQAPGKEREGVSCITASGSSTNYANSVKGRFTISRDKVKNTVYLQMSSLKPEDTAVYYCAAEPCTVVAGILQAPTSDFGSWGQGTQVTVSS
# notes: also called Nb S33
# B8: hSIRPα nanobody S8 (VHH)
# VHH: QVQLVESGGGLVQPGGSLRLSCADSEFRLDEYATGWFRQAPGKEREGVACISRSGSNTKYTDSVKGRFTISRDNAKKTVYLQMNSLKPEDTAVYYCAADLTSHYLSCSSYTDYNSWGQGTQVTVSS
# notes: Purified by IMAC; the tag is not described; also called Nb S8
# B9: hSIRPα nanobody S41 (VHH)
# VHH: HVQLVESGGGLVQPGGSLRLSCAASGETLDYYAIGYVRQAPGKEREGVSCISSRGDNTNYADSVKGRFTISRDNANNTVYLQMNSLKPEDTAVYYCVAIKDSWQNYYCSVGWVEYDVWGQGTQVTVSS
# notes: The single assignment S41 = 26 follows only from the listing order; also called Nb S41
# Target: T2, recombinant hSIRPα (extracellular portion) (human, UniProt P78324 31-373, biotinylated with Sulfo-NHS-LC-LC-Biotin where immobilised on streptavidin sensors)
# T2 construct: extracellular domain; The limits aa31-370 are stated for the immunogen; The BLI and HDX text says only 'recombinant hSIRPα' / 'biotinylated hSIRPα'; also called biotinylated hSIRPα
# Experiment: BLI, biotinylated hSIRPα immobilised on streptavidin biosensors, chelator conjugated S36K>R at 1.25-10 nM
# Protocol: Biotinylated hSIRPα was immobilized on streptavidin biosensors. Kinetic measurements were performed by using four concentrations of purified Nbs ranging from 1.25 nM to 10 nM; (E) Stability analysis of chelator conjugated hSIRPα-S36_{K>R} Nb by nanoDSF as fluorescence ratios (350 nm/330 nm) and light intensity loss due to scattering illustrated as first derivative before (To) and after 10 days of accelerated aging at 37° C. (T₁₀); and (F) Phagocytosis of DLD-1 cells by human monocyte-derived macrophages treated with anti-EGFR cetuximab and chelator conjugated hSIRPα-S36_{K>R} Nb. Analysis of phagocytosis of hSIRPα-S36_{K>R} Nb in combination with cetuximab of three different donors (K1, K2, K3). Data are presented as mean±SD of three technical replicates. And
# Analysis of binding kinetics of hSIRPα specific Nbs was performed using the Octet RED96e system (Sartorius) as per the manufacturer's recommendations. In brief, […] of biotinylated hSIRPα diluted in Octet buffer (PBS, 0.1% BSA, 0.02% Tween20) was immobilized on streptavidin coated biosensor tips (SA, Sartorius) for 40 s. In the association step, a dilution series of Nbs ranging from 0.625-320 nM were reacted for 240 s followed by dissociation in Octet buffer for 720 s. […] Data were analyzed using the Octet Data Analysis HT 12.0 software applying the 1:1 ligand-binding model and global fitting. […]
# T2 sequence (P78324 31-373): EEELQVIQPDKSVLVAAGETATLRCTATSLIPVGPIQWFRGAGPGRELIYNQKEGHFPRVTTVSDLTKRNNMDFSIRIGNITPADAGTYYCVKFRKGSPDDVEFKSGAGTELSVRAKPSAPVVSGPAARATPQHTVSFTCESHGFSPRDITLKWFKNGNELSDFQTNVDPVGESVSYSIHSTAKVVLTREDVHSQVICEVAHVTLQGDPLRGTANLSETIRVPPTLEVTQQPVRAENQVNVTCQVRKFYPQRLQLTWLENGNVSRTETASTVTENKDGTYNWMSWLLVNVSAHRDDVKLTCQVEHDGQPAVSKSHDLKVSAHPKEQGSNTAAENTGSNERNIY
row,Binder,Kd [nM]
1,B1,0.19

# Target: T2, recombinant hSIRPα (extracellular …)
# Experiment: BLI, biotinylated hSIRPα immobilised on streptavidin biosensors, S36 at 0.625-5 nM, global 1:1 fit
# Protocol: (§1) Biotinylated hSIRPα was immobilized on streptavidin biosensors.
# (§2) Analysis of binding kinetics of hSIRPα specific Nbs was performed using the Octet RED96e system (Sartorius) as per the manufacturer's recommendations. In brief, […] of biotinylated hSIRPα diluted in Octet buffer (PBS, 0.1% BSA, 0.02% Tween20) was immobilized on streptavidin coated biosensor tips (SA, Sartorius) for 40 s. In the association step, a dilution series of Nbs ranging from 0.625-320 nM were reacted for 240 s followed by dissociation in Octet buffer for 720 s. Every run was normalized to a reference run applying Octet buffer for association. Data were analyzed using the Octet Data Analysis HT 12.0 software applying the 1:1 ligand-binding model and global fitting. For epitope binning two consecutive association steps with different Nbs were performed. By analyzing the binding behavior of the second Nb, conclusions about shared epitopes were drawn. For the hCD47 competition assay hCD47 was biotinylated and immobilized on SA biosensors followed by the application of pre-mixed solutions containing hSIRPα (20 nM) and Nb (250 nM). As control the hCD47-competing Ab KWAR23 (5 nM) was used.
row,Binder,Kd [nM]
1,B2,0.12

# Target: T3, hSIRPα-V2 on U2OS cells (human, UniProt P78324 31-504)
# T3 construct: whole, on cells
# Experiment: live-cell immunofluorescence on U2OS cells transiently expressing hSIRPα-V2, detection with anti-VHH-Cy5
# Protocol: (§3) Data are presented as mean±SD of three technical replicates.
# Stably expressing hSIRPα U2OS cells, U2OS wt or U2OS cells transiently expressing individual hSIRPα domains (D1-3) with SPOT-Tag or different hSIRP family members (hSIRPα-V1, hSIRPα-V2, hSIRPβ1, hSIRPγ, murine SIRPα) were plated at ˜10,000 cells per well of a μClear 96-well plate (Greiner Bio One, cat. #655090) and cultivated overnight at standard conditions. For imaging, medium was replaced by live-cell visualization medium DMEMgfp-2 (Evrogen, cat. #MC102) supplemented with 10% FBS, 2 mM L-glutamine, 2 μg/ml Hoechst33258 (Sigma Aldrich) for nuclear staining. […]
# (§4) Moreover, with hSIRPαV1 and hSIRPαV2, two isoforms are expressed either homozygously (v1/v1 or v2/v2) or heterozygously (v1/v2), and the frequency of distribution varies between human subpopulations (Sim et al., “Discovery of high affinity, pan-allelic, and pan-mammalian reactive antibodies against the myeloid checkpoint receptor SIRPα”, MAbs. Taylor & Francis (2019) pp. 1036-1052). To address the question of specificity, hSIRPβ1, hSIRPγ or the hSIRPα polymorphisms hSIRPα-V1 and hSIRPα-V2 were transiently expressed in U2OS cells and their recognition was analyzed by the selected hSIRPα Nbs by immunofluorescence staining. […]
# T3 sequence (P78324 other isoform, or with tags, fused parts or gaps limits assumed): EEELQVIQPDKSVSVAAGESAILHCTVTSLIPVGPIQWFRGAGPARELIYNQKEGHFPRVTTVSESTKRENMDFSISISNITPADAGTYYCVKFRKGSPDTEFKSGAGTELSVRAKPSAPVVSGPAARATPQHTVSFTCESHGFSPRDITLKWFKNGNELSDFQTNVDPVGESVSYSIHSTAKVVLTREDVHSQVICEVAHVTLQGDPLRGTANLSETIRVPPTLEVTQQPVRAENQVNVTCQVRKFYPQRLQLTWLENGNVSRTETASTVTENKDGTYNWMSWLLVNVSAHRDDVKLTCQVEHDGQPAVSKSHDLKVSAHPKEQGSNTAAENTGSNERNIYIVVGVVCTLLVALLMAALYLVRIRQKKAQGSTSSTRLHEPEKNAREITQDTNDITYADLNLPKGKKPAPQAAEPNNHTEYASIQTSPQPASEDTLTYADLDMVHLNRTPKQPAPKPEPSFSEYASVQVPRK
row,Binder,binding result
1,B3,no binding (tested: not on the sheet; 1-100 nM per paragraph 140)
2,B4,no binding (tested: not on the sheet; 1-100 nM per paragraph 140)

# Target: T2, recombinant hSIRPα (extracellular …)
# Experiment: BLI, biotinylated hSIRPα immobilised on streptavidin biosensors, Nb in solution, global 1:1 fit
# Protocol: as §1, §2
Binder,Kd [nM],koff [s⁻¹],kon [M⁻¹ s⁻¹]
B5,20,0.0123,610000
B2,0.12,0.0002,1.52e+06
B3,4.61,0.00915,1.99e+06
B4,25.9,0.0127,490000
B6,2.53,0.00164,646000
B7,20,0.00544,267000
B8,0.46,0.0009,2.04e+06
B9,5.65,0.00383,678000

# Target: T4, hSIRPγ on U2OS cells (human, UniProt Q9P1W8 29-387)
# T4 construct: whole, on cells; also called SIRP gamma
# Experiment: live-cell immunofluorescence on U2OS cells transiently expressing hSIRPγ, detection with anti-VHH-Cy5
# Protocol: as §3
# (§5) Stably expressing hSIRPα U2OS cells, U2OS wt or U2OS cells transiently expressing individual hSIRPα domains (D1-3) with SPOT-Tag or different hSIRP family members (hSIRPα-V1, hSIRPα-V2, hSIRPβ1, hSIRPγ, murine SIRPα) were plated at ˜10,000 cells per well of a μClear 96-well plate (Greiner Bio One, cat. #655090) and cultivated overnight at standard conditions. For imaging, medium was replaced by live-cell visualization medium DMEMgfp-2 (Evrogen, cat. #MC102) supplemented with 10% FBS, 2 mM L-glutamine, 2 μg/ml Hoechst33258 (Sigma Aldrich) for nuclear staining. 1-100 nM of unlabeled hSIRPα Nbs in combination with 2.5 μg/ml anti-VHH secondary Cy5 AffiniPure Goat Anti-Alpaca IgG (Jackson Immuno Research) were added and incubated for 1 h at 37° C. For control staining hSIRPα Ab PE (SE5A5, BioLegend) and bivSPOT-Nb labeled with AlexaFluor647 (AF647) were used. Images were acquired with a MetaXpress Micro XL system (Molecular Devices) at 20× or 40× magnification.
# (§6) Moreover, with hSIRPαV1 and hSIRPαV2, two isoforms are expressed either homozygously (v1/v1 or v2/v2) or heterozygously (v1/v2), and the frequency of distribution varies between human subpopulations (Sim et al., “Discovery of high affinity, pan-allelic, and pan-mammalian reactive antibodies against the myeloid checkpoint receptor SIRPα”, MAbs. Taylor & Francis (2019) pp. 1036-1052). To address the question of specificity, hSIRPβ1, hSIRPγ or the hSIRPα polymorphisms hSIRPα-V1 and hSIRPα-V2 were transiently expressed in U2OS cells and their recognition was analyzed by the selected hSIRPα Nbs by immunofluorescence staining. In addition, murine SIRPα was included to evaluate potential cross-reactivity between human and mouse SIRPα variants (FIG. 3A; data not shown).
# T4 sequence (Q9P1W8 29-387): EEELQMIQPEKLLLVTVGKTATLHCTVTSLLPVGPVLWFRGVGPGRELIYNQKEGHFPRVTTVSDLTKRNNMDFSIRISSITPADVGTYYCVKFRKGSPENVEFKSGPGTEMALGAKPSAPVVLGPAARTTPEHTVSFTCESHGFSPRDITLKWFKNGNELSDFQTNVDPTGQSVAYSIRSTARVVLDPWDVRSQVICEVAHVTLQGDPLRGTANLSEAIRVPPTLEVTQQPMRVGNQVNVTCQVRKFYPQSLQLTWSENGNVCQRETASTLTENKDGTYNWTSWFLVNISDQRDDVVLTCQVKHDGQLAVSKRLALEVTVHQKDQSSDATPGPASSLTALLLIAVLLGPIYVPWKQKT
row,Binder,binding result
1,B5,no binding (tested: not on the sheet; 1-100 nM per paragraph 140)
2,B6,no binding (tested: not on the sheet; 1-100 nM per paragraph 140)
3,B7,no binding (tested: not on the sheet; 1-100 nM per paragraph 140)

# Target: T5, hSIRPβ1 on U2OS cells (human, UniProt O00241 30-398)
# T5 construct: whole, on cells; also called SIRP beta
# Experiment: immunofluorescence on U2OS cells transiently expressing hSIRPβ1
# Protocol: as §5, with “For control staining hSIRPα Ab PE (SE5A5, BioLegend) and bivSPOT-Nb labeled with AlexaFluor647 (AF647) were used. Images were acquired with a MetaXpress Micro XL system (Molecular Devices) at 20× or 40× magnification.” left out
# as §4
# T5 sequence (O00241 30-398): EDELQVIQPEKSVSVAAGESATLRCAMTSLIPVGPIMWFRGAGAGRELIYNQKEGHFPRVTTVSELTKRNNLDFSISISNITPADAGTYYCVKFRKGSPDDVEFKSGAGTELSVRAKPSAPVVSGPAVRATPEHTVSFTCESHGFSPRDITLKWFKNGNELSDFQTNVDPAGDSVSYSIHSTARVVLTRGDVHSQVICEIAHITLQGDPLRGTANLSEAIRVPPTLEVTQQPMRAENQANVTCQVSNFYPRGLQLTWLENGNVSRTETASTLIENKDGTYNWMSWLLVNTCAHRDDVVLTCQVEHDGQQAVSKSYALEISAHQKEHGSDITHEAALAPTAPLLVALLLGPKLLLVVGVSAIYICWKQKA
row,Binder,binding result
1,B2,binds

# Target: T1, murine SIRPα on U2OS cells
# Experiment: live-cell immunofluorescence on U2OS cells transiently expressing murine SIRPα
# Protocol: as §5, §6
row,Binder,binding result
1,B5,no binding (tested: 1-100 nM)
2,B2,no binding (tested: 1-100 nM)
3,B3,no binding (tested: 1-100 nM)
4,B4,no binding (tested: 1-100 nM)
5,B6,no binding (tested: 1-100 nM)
6,B7,no binding (tested: 1-100 nM)
7,B8,no binding (tested: 1-100 nM)

# Target: T4, hSIRPγ on U2OS cells
# Experiment: immunofluorescence on U2OS cells transiently expressing hSIRPγ
# Protocol: as §5, with “For control staining hSIRPα Ab PE (SE5A5, BioLegend) and bivSPOT-Nb labeled with AlexaFluor647 (AF647) were used. Images were acquired with a MetaXpress Micro XL system (Molecular Devices) at 20× or 40× magnification.” left out
# as §4
row,Binder,binding result
1,B2,binds
